Test results published in patent US20070231812A1, “Method of Screening Antidiabetic Agents” (priority 2004, published 2007).

B1: SOCS-2: mouse SOCS-2 (amino acid sequence of SEQ ID NO: 2) overexpressed in pancreatic β cells via adenovirus vector pAdTrack-CMV (protein, listed as Mus sp.)
chain: MTLRCLEPSGNGADRTRSQWGTAGLPEEQSPEAARLAKALRELSQTGWYWGSMTVNEAKEKLKEAPEGTFLIRDSSHSDYLLTISVKTSAGPTNLRIEYQDGKFRLDSIICVKSKLKQFDSVVHLIDYYVQMCKDKRTGPEAPRNGTVHLYLTKPLYTSAPTLQHFCRLAINKCTGTIWGLPLPTRLKDYLEEYKFQV

Tests used:
SOCS-2 promoter = SOCS-2 promoter reporter (luciferase) activity in HepG2 cells with or without IL-6; format: cell-based, human; conditions: IL-6 stimulation 3 hours, standardized by β-galactosidase activity, relative to absence of IL-6
Protocol: On the basis of the registered sequence (NCBI Reference Sequences No. NM_003877) of human SOCS-2, a genomic sequence which accords with the sequence was specified as the sequence of NCBI GenBank accession No. NC—000012.5—93000001—94000000. To obtain a DNA consisting of nucleotides 893,596-898,678 of NC—000012.5—93000001—94000000, which was considered the promoter region of human SOCS-2, i.e., a DNA consisting of the nucleotide sequence of SEQ ID NO: 3, the first PCR was carried out using synthetic oligo DNAs [5′-gtg[…]-3′ (SEQ ID NO: 8) and 5′-gtg[…]-3′ (SEQ ID NO: 9)] having restriction enzyme sites […] and NheI, respectively, and an LA Taq (TAKARA; catalogue code RR002A). The resulting PCR product was diluted to 1/50 with sterile water, and the second PCR was carried out using the diluted solution as a template, synthetic oligo DNAs [5′-gtg[…]-3′ (SEQ ID NO: 10) and 5′-gtg[…]-3′ (SEQ ID NO: 11)], and an LA Taq (TAKARA; catalogue code RR002A). […]
HepG2 cells (ATCC accession No. HB-8065) was transformed with the SOCS-2 reporter vector or the control vector prepared in Example 3(1) to measure the activity when stimulated with or without IL-6. […] The cells were lysed with a cell lysis solution LCβ (Toyo Ink MFG), and a luciferase activity was measured using a PicaGene coloring kit (Toyo Ink MFG; 309-04321). […]

endogenous SOCS-2 gene = experiment: Endogenous SOCS-2 mRNA in HepG2 cells by quantitative PCR with or without IL-6; format: cell-based, human; conditions: IL-6 10 ng/mL, 3 hours, compensated with G3PDH, relative to absence of IL-6
Protocol: First, an endogenous SOCS-2 promoter activity was measured. Since a stimulation capable of promoting the SOCS-2 promoter activity in pancreatic β cells was unknown, an amount of SOCS-2 mRNA was measured when stimulated by IL-6, which was a typical stimulation capable of increasing a transcriptional activity of STAT1, STAT3, or STAT5. It is considered that STAT1, STAT3, and STAT5 transduce an external signal, and finally promote a SOCS-2 transcriptional activity. More particularly, human HepG2 cells in which the IL-6 reactivity was confirmed were used to measure and compare amounts of endogenous SOCS-2 mRNA expressed when stimulated with or without IL-6 stimulation. The amount of gene expressed was compensated by measuring an amount of a G3PDH (Glyceraldehyde 3-phosphate dehydrogenase) gene expressed, at the same time. […] In this measuring system, an amount of fluorescence from a SYBR Green I dye incorporated into double-stranded DNAs amplified by PCR was detected and quantified in real time, to determine the amount of gene expressed. […]
The amount of […] SOCS-2 gene expressed was compensated with that of the G3PDH gene expressed in accordance with the following equation: C=A/B [C: Compensated amount of SOCS-2 expressed, A: Measured value of the SOCS-2 gene expressed, and B: Measured value of the G3PDH gene expressed]

[1] = tested on: rat pancreatic Langerhans islets; experiment: Insulin secreted from rat pancreatic Langerhans islets overexpressing SOCS-2; format: cell-based; conditions: 90 minutes, adenovirus infected rat islets
Protocol: After 4 male rats (6-8 weeks old, 350 to 450 g in weight) were anesthetized, the abdomen was incised and exposed. A bile duct of the liver was ligated, and blood was drawn from the heart. From the bile duct, 5 mL of HBSS-HEPES (136.8 mmol/L NaCl, 5.3 mmol/L KCl, 0.8 mmol/L MgSO4, 1 mmol/L Na2HPO4, 0.44 mmol/L KH2PO4, 4.1 mmol/L NaHCO3, 10 mmol/L Hepes, 1 mmol/L CaCl2, and 2 mmol/L glucose, pH 7.2) supplemented with 0.02% Liberase (Roche Diagnostic) was injected using a winged needle. The pancreas was removed and transferred to a tube containing 5 mL of HBSS-HEPE, and incubated at 37° C. for 20 minutes. After the incubation, the whole was stirred, and ice-cold HBSS-HEPES-0.35% BSA was added. The mixture was centrifuged at 1500 rpm for 1 minute to remove the supernatant. To the precipitated tissues, 10 mL of HBSS-HEPES-0.35% BSA was added, and the tissues were suspended using a needle. This washing step was repeated twice. After the centrifugation, the supernatant was removed, and 10 mL of a 8.3% Ficoll-Conray solution was added and suspended. Further, 10 mL of HBSS-HEPES-0.35% BSA was added, and the whole was centrifuged for 20 minutes. After the centrifugation, pancreatic Langerhans islets between two liquid layers were collected. To the collected pancreatic Langerhans islets, 10 mL of HBSS-HEPES-0.35% BSA was added, and the whole was centrifuged. […]

MIN6B1 cells = experiment: Insulin secreted from MIN6B1 cells overexpressing SOCS-2; format: cell-based, mouse; conditions: 20 minutes, adenovirus infected MIN6B1 cells
Protocol: Mouse pancreatic β cell line MIN6B1 cells [Endocrinol. (2003) 144,. 1368-1379] were infected with SOCS-2/pAdTrack-CMV or pAdTrack-CMV (control) to prepare pancreatic β cells overexpressing SOCS-2, as described below.
MIN6B1 cells (2×10^5 cells) were seeded on a 24-well plate, and cultured for 24 hours in 0.5 mL of a minimum essential medium DMEM (GIBCO) containing 10% fetal bovine serum (SIGMA). SOCS-2/pAdTrack-CMV or pAdTrack-CMV (control) was added to each medium at a concentration of 4×10^8 pfu/well.
After 14 hours from the adenovirus infection of pancreatic β cells, each medium was aspirated, and cells were washed three times with KRB-HEPES (140 mmol/L NaCl, 3.6 mmol/L KCl, 0.5 mmol/L NaH2PO4, 0.5 mmol/L MgSO4, 1.5 mmol/L-CaCl2, 10 mmol/L Hepes, 2 mmol/L NaHCO3, and 0.1% BSA, pH 7.4), and incubated in 2.8 mmol/L glucose-containing KRB-HEPES (1 mL) at 37° C. for 1 hour in the presence of 5% CO2.
After the buffer was aspirated, 2.8 mmol/L or 16.8 mmol/L glucose-containing KRB-HEPES was added. The cells were further incubated at 37° C. for 20 minutes in the presence of 5% CO2, and an amount of insulin secreted into the supernatant was measured.
A commercially available insulin radioimmunoassay kit (Rat insulin [125I] RIA system; Amersham Bioscience) was used for the measurement of the amount of insulin secreted.

[2] = 16.8 mmol/L glucose, p<0.01 vs control

Molecule	SOCS-2 reporter activity, factor of increase (SOCS-2 promoter)	expression of the endogenous SOCS-2 gene, factor of increase (endogenous SOCS-2 gene)	insulin secretion versus control ([1]; 2.8 mmol/L glucose)	insulin secretion versus control [1, 2]	insulin secretion versus control (MIN6B1 cells; 2.8 mmol/L glucose)	insulin secretion versus control (MIN6B1 cells; [2])
IL-6: typical stimulation capable of increasing a transcriptional activity of STAT1, STAT3, or STAT5 (R&D Systems)	approximately 2	approximately 2				
B1			no difference was observed	inhibited the activity of promoting insulin secretion	no difference was observed	inhibited the activity of promoting insulin secretion
